For experiment [1], the target named is CD4-10-17b CAR with an inserted myc epitope, expressed on cells transduced with the SFFV/CAR-T-myc/GFP lentivirus (human) (UniProt P01730). The experiment is described as follows: cell-based or functional assay.
Experiment [2] shares this target. The experiment is described as follows: flow cytometry, primary human T cells transduced with SFFV/CAR-T-myc/GFP, gated CD4+GFP+. On the technique in general: A flow cytometer gives signals particle by particle.
Experiment [3] shares this target. The experiment is described as follows: flow cytometry, primary human T cells transduced with SFFV/CAR-T-myc/GFP, gated CD8+GFP+.

The source of these data is patent publication US20230364234A1.

Substance 9E10 anti-myc epitope antibody displayed an IFN-γ production by CD4+ GFP+ T cells (flow cytometry, overnight stimulation) in experiment [1] of 3 fold. For the same substance, the percent of transduced CD4+ T cells bound in experiment [2] turned out to be 35%. In experiment [3], the percent of transduced CD8+ T cells bound was 25%.
